Source: publication PMC3625234, “The L-Cysteine Desulfurase NFS1 Is Localized in the Cytosol where it Provides the Sulfur for Molybdenum Cofactor Biosynthesis in Humans” (PLoS ONE, 2013)

Assays:
[1] = target: ECFP-MOCS3-RLD fusion (human); experiment: FRET or BRET; time-gated FLIM-FRET in transiently transfected HeLa cells; ECFP donor lifetime (long component τ1 of a bi-exponential fit) with EYFP acceptor; N = 30–42 cells
[2] = target: MOCS3-RLD (purified) (human); experiment: SPR; Biacore T200, CM5 chip, target immobilized by amine coupling (400–600 RU), 25°C, 30 µL/min, 20 mM phosphate, 150 mM NaCl, 0.005% Tween 20, pH 7.4; analytes 0.31–10 µM; global fit, 1:1 binding, mean of 3 measurements
[3] = target: T1, NFS1Δ1-55^C381A/ISD11 complex (human, UniProt Q9Y697 56-457; Q9HD34 1-91, C381A); experiment: as above; details: both partners purified
T1 construct: L-cysteine desulfurase NFS1, human, without residues 1-55, with C381A; ISD11, human; without ISD11 it precipitated; source: E. coli BL21(DE3), co-expressed (pUMT13 and pZM4), purified

NFS1Δ1-55/ISD11 complex = target: T2, NFS1Δ1-55/ISD11 complex (human, UniProt Q9Y697 56-457; Q9HD34 1-91); experiment: as above; details: both partners purified
T2 construct: L-cysteine desulfurase NFS1, human, without residues 1-55; ISD11, human; source: E. coli BL21(DE3), co-expressed (pZM2 and pZM4), purified
T2 sequence (Q9Y697 56-457, stated change not applied, chain 1 of 2): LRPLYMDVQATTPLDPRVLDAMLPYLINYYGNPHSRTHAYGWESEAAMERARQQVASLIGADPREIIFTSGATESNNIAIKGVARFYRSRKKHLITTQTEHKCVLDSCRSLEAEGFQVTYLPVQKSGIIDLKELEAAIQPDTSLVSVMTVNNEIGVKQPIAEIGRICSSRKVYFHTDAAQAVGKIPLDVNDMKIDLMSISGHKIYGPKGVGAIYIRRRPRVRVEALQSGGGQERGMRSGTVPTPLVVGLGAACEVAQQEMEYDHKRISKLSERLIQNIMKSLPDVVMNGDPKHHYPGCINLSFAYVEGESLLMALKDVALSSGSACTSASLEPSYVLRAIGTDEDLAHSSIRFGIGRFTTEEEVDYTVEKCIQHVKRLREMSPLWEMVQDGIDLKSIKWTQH
T2 sequence (Q9HD34 whole entry, stated change not applied, chain 2 of 2, the tested form may be a part): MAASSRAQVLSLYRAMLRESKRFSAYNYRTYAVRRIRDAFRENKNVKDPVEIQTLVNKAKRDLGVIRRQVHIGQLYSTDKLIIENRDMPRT

T1 sequence (Q9Y697 56-457 C381A, chain 1 of 2): as the sequence (Q9Y697 56-457, stated change not applied, chain 1 of 2) above, with C326A counted along it
T1 sequence (Q9HD34 whole entry, chain 2 of 2, the tested form may be a part): as the sequence (Q9HD34 whole entry, stated change not applied, chain 2 of 2, the tested form may be a part) above

EYFP-NFS1Δ1-55 fusion (from UniProt Q9Y697 56-457) (domain or fragment)
ECFP donor lifetime τ1 [1]: 2.9 ns
reduction of the ECFP donor lifetime [1]: 17%

NFS1Δ1-55 (purified) (from UniProt Q9Y697 56-457) (domain or fragment)
Kd [2]: 36 nM

NFS1Δ1-55/ISD11 complex (from UniProt Q9Y697 56-457; Q9HD34 1-91)
Kd [2]: 166 nM

NFS1Δ1-55^C381A/ISD11 complex (from UniProt Q9Y697 56-457; Q9HD34 1-91)
Kd [2]: 241 nM

B1: MOCS3 purified after expression in Sf9 cells (enzyme, human, UniProt O95396 1-460, looked up)
chain: MASREEVLALQAEVAQREEELNSLKQKLASALLAEQEPQPERLVPVSPLPPKAALSRDEILRYSRQLVLPELGVHGQLRLGTACVLIVGCGGLGCPLAQYLAAAGVGRLGLVDYDVVEMSNLARQVLHGEALAGQAKAFSAAASLRRLNSAVECVPYTQALTPATALDLVRRYDVVADCSDNVPTRYLVNDACVLAGRPLVSASALRFEGQITVYHYDGGPCYRCIFPQPPPAETVTNCADGGVLGVVTGVLGCLQALEVLKIAAGLGPSYSGSLLLFDALRGHFRSIRLRSRRLDCAACGERPTVTDLLDYEAFCGSSATDKCRSLQLLSPEERVSVTDYKRLLDSGAFHLLLDVRPQVEVDICRLPHALHIPLKHLERRDAESLKLLKEAIWEEKQGTQEGAAVPIYVICKLGNDSQKAVKILQSLSAAQELDPLTVRDVVGGLMAWAAKIDGTFPQY
notes: MOCS3, human; no tag is named here; also called pMMC30; source: Sf9 cells, purified
Kd [3]: 218 nM
Kd (NFS1Δ1-55/ISD11 complex): 119 nM
